In assay [1] the target is T1, RSV postfusion F (postF), subtype A (respiratory syncytial virus subtype A, UniProt P03420 26-513).
T1 construct: also called Postfusion subtype A; F deltaFP
Kind of assay: BLI.

The target of assay [2] is T2, RSV prefusion F (preF), subtype B (respiratory syncytial virus subtype B).
T2 construct: also called Prefusion subtype B
Description: BLI, IgG. On the technique in general: BLI is a label-free optical method that tracks binding on a fibre tip over time.

Assay [3] has as its target RSV F on RSV subtype A virus (mKate-RSV A2) (respiratory syncytial virus A2, UniProt P03420 26-574). Description: cell-based or functional assay.
For assay [4], the target named is RSV F on RSV subtype B virus (mKate-RSV B 18537) (respiratory syncytial virus B 18537, UniProt P13843 26-574). Description: cell-based or functional assay.

B1: ADI-24849 (antibody, V domains shown)
VH: QVQLVQSGGVVVQPGGSLRLSCAASGFTFDDYTMHWVRQAPGKGLEWVSLIGWDGGSTYYADSVKGRFTISRDNSKYSLYLQMNSLRTEDTALYYCAKDLGSSSGYFLGRDYYGMDVWGQGTTVTVSS
VL: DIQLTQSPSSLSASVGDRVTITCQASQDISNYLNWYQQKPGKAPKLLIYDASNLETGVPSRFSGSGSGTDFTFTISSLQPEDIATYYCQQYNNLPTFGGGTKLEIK
notes: full-length IgG; also called Ab 410
In general, Kd refers to the equilibrium constant for the complex coming apart. Low values mean a tighter complex, high ones a looser complex. Consider B1, for which the binding result in assay [1] is “no binding”. In assay [2], binding was put at a Kd of 1.17 nM. Besides, the “Neut IC50 subtype A” value in assay [3] was 0.01 µg/mL. In assay [4], the “Neut IC50 subtype B” value stood at 0.03 µg/mL.

B2: ADI-24850 (antibody, V domains shown)
VH: QVQLVQSGGGLVKPGGSLRLSCAASGFTFSSYSMNWVRQAPGKGLEWVSSISSSSSYIYYADSVKGRFTISRDNAKNSLYLQMNSLRAEDTAVYYCAREDYGDYYYYYMDVWGKGTTVTVSS
VL: QPVLTQPPSVSGAPGQRVTISCTGSSSNIGAGYDVHWYQQLPGTAPKLLIYGNSNRPSGVPDRFSGSKSGTSASLAITGLQAEDEADYYCQSYDSSLSGYVFGTGTKVTVL
notes: full-length IgG
Regarding B2, in assay [1], the binding result is recorded as “no binding”. Binding in assay [2] was characterised by a dissociation constant (Kd) of 5.56 nM. Moreover, the “Neut IC50 subtype A” value in assay [3] is 0.94 µg/mL. In assay [4], the “Neut IC50 subtype B” value amounted to 4.17 µg/mL.

B3: ADI-24860 (antibody, V domains shown)
VH: EVQLLESGGGLVKPGGSLRLSCAASGLTFSDYYMSWIRQAPGKGLEWVSYISGGSSYSNYADSVKGRFTISRDNAKNSLYLQMNSLRAEDTAVYYCARGYCSGSSCYEAFDIWGQGTTVTVSS
VL: SYVLTQPPSVSGAPGQRVTISCTGSSSNIGAGFDVHWYQQLPGTAPKLLIYGNSDRPSGVPDRFSGSKSGTSASLAITGLQAEDEADYYCQSYDSSLSGYVFGTGTKVTVL
notes: full-length IgG; also called Ab 420
With B3, the binding result in assay [1] is “no binding”. Further, binding in assay [2] was put at a Kd of 1.56 nM. In addition, the “Neut IC50 subtype A” value in assay [3] is 0.06 µg/mL. Moreover, the “Neut IC50 subtype B” value in assay [4] came out at 0.09 µg/mL.

B4: ADI-24839 (antibody, V domains shown)
VH: EVQLVESGGGLVKPGGSLRLSCAASGFTFSSYSMNWVRQAPGKGLEWVSSISSSSSYIYYADSVKGRFTISRDNAKNSLYLQMNSLRAEDTAVYYCARVLVATAYGNAFDIWGQGTMVTVSS
VL: QSVLTQPPSVSGAPGQRVTISCTGSSSNIGAGYDVHWYQQLPGTAPKLLIYGNSNRPSGVPDRFSGSKSGTSASLAITGLQAEDEADYYCQSYDSSLTVVFGGGTKLTVL
notes: full-length IgG
On to B4, for which the binding result in assay [1] is “no binding”. Besides, the affinity in assay [2], expressed as Kd, was 9.63 nM. The “Neut IC50 subtype A” value in assay [3] came to 0.44 µg/mL. Further, the “Neut IC50 subtype B” value in assay [4] is 4.1 µg/mL.

B5: ADI-24842 (antibody, V domains shown)
VH: QVQLVQSGGGLVKPGGSLRLSCAASGFTFSSYSMNWVRQAPGKGLEWVSSISSSSSYIYYADSVKGRFTISRDNAKNSLYLQMNSLRAEDTAVYYCARVPPHDYGGYYFDYWGQGTLVTVSS
VL: QSVVTQPPSVSGAPGQRVTISCTGSSSNIGAGYDVHWYQQLPGTAPKLLIYRNSNRPSGVPDRFSGSKSGTSASLAIIGLQAEDEADYYCQSYDSSLSVVFGGGTKLTVL
notes: full-length IgG
As to B5, in assay [1], the binding result is on record as “no binding”. Moreover, the Kd in assay [2] was found to be 2.76 nM. Also, the “Neut IC50 subtype A” value in assay [3] came to 0.03 µg/mL. Besides, the “Neut IC50 subtype B” value in assay [4] worked out at 0.03 µg/mL.

B6: ADI-24857 (antibody, V domains shown)
VH: EVQLLESGGGLVKPGGSLRLSCAASGFTFSSYSMNWVRQAPGKGLEWVSSISSSSSYIYYADSVKGRFTISRDNAKNSLYLQMNSLRAEDTAVYYCAREGYYYGSGSYLDYWGQGTLVTVSS
VL: QSVVTQPPSVSGAPGQRVTISCTGSSSNIGAGYDVHWYQQLPGTAPKLLIYGNSNRPSGVPDRFSGSKSGTSASLAITGLQAEDEADYYCQSYDSSLSVVFGGGTKLTVL
notes: full-length IgG
With B6, in assay [1], the binding result is given as “no binding”. In assay [2], binding was characterised by a dissociation constant (Kd) of 3.71 nM. The “Neut IC50 subtype A” value in assay [3] is 0.18 µg/mL. Further, in assay [4], the “Neut IC50 subtype B” value turned out to be 1.4 µg/mL.

(Values after patent US20260258115A1 (MAPP BIOPHARMACEUTICAL, published 2026).)
